Assay results published in patent publication US20210284750A1, “Immunoconjugate Synthesis Method” (priority 2017, published 2021).

What was measured:
[1] = system: Human antigen presenting cells (APCs); assay: APC-tumor co-culture: myeloid activation by flow cytometry; type: cell-based; details: 18 hours; for myeloid activation: APC-tumor co-culture
Source text: (§1) Isolation of Human Antigen Presenting Cells. Human antigen presenting cells (APCs) were negatively selected from human peripheral blood mononuclear cells obtained from healthy blood donors (Stanford Blood Center) by density gradient centrifugation using a RosetteSep Human Monocyte Enrichment Cocktail (Stem Cell Technologies) containing monoclonal antibodies against CD14, CD16, CD40, CD86, CD123, and HLA-DR. Immature APCs were subsequently purified to >97% purity via negative selection using an EasySep Human Monocyte Enrichment Kit without CD16 depletion containing monoclonal antibodies against CD14, CD16, CD40, CD86, CD123, and HLA-DR.
(§2) Preparation of Tumor Cells. Tumor cells were resuspended in PBS with 0.1% fetal bovine serum (FBS) at 1 to 10×10^6 cells/mL. Cells were subsequently incubated with 2 μM CFSE to yield a final concentration of 1 μM. The reaction was ended after 2 minutes via the addition of 10 mL complete medium with 10% FBS and washed once with complete medium. Cells were either fixed in 2% paraformaldehyde and washed three times with PBS or left unfixed prior to freezing the cells in 10% DMSO, 20% FBS and 70% medium.
(§3) APC-Tumor Co-cultures. […] Cells and cell-free supernatants were analyzed after 18 hours via flow cytometry or ELISA.

[2] = system: Human antigen presenting cells (APCs); assay: APC-tumor co-culture: cytokine secretion in cell-free supernatants (ELISA); type: cell-based; details: 18 hours
Source text: as §1, §2, §3

[3] = APCs with CFSE-labeled tumor cells, various concentrations, flow cytometry

B1: CD20 (protein, UniProt P11836 1-297, looked up)
B-lymphocyte antigen CD20: MTTPRNSVNGTFPAEPMKGPIAMQSGPKPLFRRMSSLVGPTQSFFMRESKTLGAVQIMNGLFHIALGGLLMIPAGIYAPICVTVWYPLWGGIMYIISGSLLAATEKNSRKCLVKGKMIMNSLSLFAAISGMILSIMDILNIKISHFLKMESLNFIRAHTPYINIYNCEPANPSEKNSPSTQYCYSIQSLFLGILSVMLIFAFFQELVIAGIVENEWKRTCSRPKSNIVLLSAEEKKEQTIEIKEEVVGLTETSSQPKNEEDIEIIPIQEEEEEETETNFPEPPQDQESSPIENDSSP
[1]
  myeloid activation: does not
[1]; listed as unconjugated CD20 antibody
  myeloid activation: do not
[1]; [3]
  myeloid activation as indicated by CD14 downregulation: does not
  myeloid activation as indicated by CD16 downregulation: does not
  myeloid activation as indicated by CD40 upregulation: does not
  myeloid activation as indicated by CD86 upregulation: does not
  myeloid activation as indicated by CD123 upregulation: does not
  myeloid activation as indicated by HLA-DR upregulation: does not
[2]
  cytokine secretion: do not
